In patent US20070196860:

Key:
[1] = system: SEQ ID NO. 48, Ac-EEEEYIQdPSxG-NH2
[2] = system: SEQ ID NO. 41, Ac-SxPGSDDDDD-NH2
[3] = system: SEQ ID NO. 30, Ac-ALKLSRYPSFdPSxG-NH2
[4] = system: SEQ ID NO. 42, Ac-SxPGIYAAPFAKKK-NH2
[5] = system: SEQ ID NO. 27, Ac-SxPGSFRRR-NH2

Chain of MK2 enzyme (P49137 whole entry): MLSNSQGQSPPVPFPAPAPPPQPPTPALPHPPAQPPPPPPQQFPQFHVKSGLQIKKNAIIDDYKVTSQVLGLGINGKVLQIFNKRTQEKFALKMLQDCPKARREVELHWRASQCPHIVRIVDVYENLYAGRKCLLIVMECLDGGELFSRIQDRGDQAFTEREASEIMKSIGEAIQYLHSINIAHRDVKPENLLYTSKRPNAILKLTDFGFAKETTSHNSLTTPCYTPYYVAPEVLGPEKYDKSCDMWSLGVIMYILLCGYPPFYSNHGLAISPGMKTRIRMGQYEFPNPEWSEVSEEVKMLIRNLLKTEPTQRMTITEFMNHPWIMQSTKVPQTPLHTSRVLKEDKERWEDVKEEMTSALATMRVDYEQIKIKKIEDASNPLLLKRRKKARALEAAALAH

## c-Src
[1]
  reaction rate, c-Src transfected CEF lysate: The c-Src transfected CEF sample showed a reaction rate of 50 RFU/sec
  reaction rate, mock transfected (control) CEF lysate: the control treated sample had a markedly reduced rate of 0.048 RFU/sec

## Erk1/2 kinase
[2]
  reaction rate, PDGF-treated NIH3T3 lysate: The PDGF-treated sample showed a reaction rate of 1.55 RFU/sec
  reaction rate, control treated NIH3T3 lysate: the control treated sample had a markedly reduced rate of 0.27 RFU/sec

## RSK
[3]
  reaction rate, PMA-treated HeLa lysate: The PMA-treated sample showed a reaction rate of 3.17 RFU/sec
  reaction rate, control treated HeLa lysate: the control treated sample had a markedly reduced rate of 0.64 RFU/sec

## p70-S6K
[4]
  reaction rate, control treated MCF-7 lysate: the control treated sample had a markedly reduced rate of 0.12 RFU/sec
  reaction rate, insulin-treated MCF-7 lysate: The insulin-treated sample showed a reaction rate of 1.13 RFU/sec

## MK2 enzyme
[5]
  fluorescence signal at plateau; cascade reaction started by B-Raf captured from NGF-treated PC12 lysate: fluorescence signals that reached a plateau at 150 minutes of incubation (3200 RFU)
  fluorescence signal at plateau; cascade reaction started by ERK1/2 captured from PDGF-treated NIH3T3 lysate: a fluorescence signal of 3000 RFU that reached a plateau at 335 minutes of incubation
  fluorescence signal at plateau; cascade reaction started by MEK1 captured from PDGF-treated NIH3T3 lysate: fluorescence signal of 3650 RFU that reached a plateau at 250 minutes of incubation
  fluorescence signal at plateau; cascade reaction started by p38 MAPK captured from anisomycin treated RAW lysate: fluorescence signal of 3350 RFU that reached a plateau at 60 minutes of incubation
  fluorescence signal; cascade reaction started by ERK1/2 captured from control NIH3T3 lysate: the control group produced fluorescence signal of 845 RFU
  fluorescence signal; cascade reaction started by MEK1 captured from control NIH3T3 lysate: the control group produced fluorescence signal of 1050 RFU
  fluorescence signal; cascade reaction started by p38 MAPK captured from control RAW lysate: the control group produced fluorescence signal of 1250 RFU
